# B1: wild-type (WT) bFGF-21 (ligand)
# chain: HPIPDSSPLLQFGGQVRQRYLYTDDAQETEAHLEIRADGTVVGAARQSPESLLELKALKPGVIQILGVKTSRFLCQGPDGKLYGSLHFDPKACSFRELLLEDGYNVYQSETLGLPLRLPPQRSSNRDPAPRGPARFLPLPGLPAAPPDPPGILAPEPPDVGSSDPLSMVGPSYGRSPSYTS
# Target: beta Klotho and FGFR1c (Fibroblast Growth Factor Receptor isoform 1c) expressed on the cell surface of a …
# Assay: cell-based or functional assay
binder,measurement,value
B1,"EC50 (ng/mL), STEADY-GLO Elk1 luciferase reporter assay",38 ng/mL
same,"Fold loss potency relative to WT bFGF21, Elk1 luciferase reporter assay",1 fold

# — US20190201491A1 (ELANCO US, published 2019)
